# ± gives the standard deviation of the averaged measurements.
# Test system: ATP
# Experiment: switch fluorescence ratio, 500 uM ATP over buffer (Cy3 cluster intensity, sum of 5 cycles each) (fold (ratio)); higher = stronger signal-on switching upon ATP binding; sequences stand for … in TCGTCGGCAGCGTCAGATGTGTATAAGAGACAGTTTTTTTTTTTTTTTTTTTTTTTTT…TC
# Details: aptamer strand: ATP DNA aptamer (quencher-CACCTGGGGGAGTATTGCGGAGGAAGG + anchor), 100 nM annealed; ATP concentration: 500 uM
# Summary of the method: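 The fluorescence ratio divides summed target-cycle Cy3 intensity by summed buffer-cycle Cy3 intensity for each cluster and is averaged per switch-domain sequence. Cy3-labelled switching-strand clusters on a modified Illumina MiSeq flow-cell were annealed to 100 nM quencher-labelled ATP aptamer, then imaged in selection buffer and again after 15 min with 500 uM ATP at 22 °C. Five such cycles were run, with NaOH stripping and re-annealing between them, and clusters outside 100-1000 RFU were excluded.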
# 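Note: ATP exposure 15 min at 22 °C before imaging.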
row,Sequence,switch fluorescence ratio
1,TTTAGTTACT,1.06 ± 0.022
2,AACATTGTTT,1.01 ± 0.016
3,GGCAGAGATC,1.06 ± 0.077
4,GCAGTGCGCC,1.2 ± 0.05
5,GGGTAAGGCT,1.01 ± 0.032
6,ACTTTGTTCT,1 ± 0.027
7,CAGAGGCCAG,0.993 ± 0.025
8,TTGTGGGGTT,0.984 ± 0.048
9,ACAGCGGCTA,1.02 ± 0.017
10,AAGTTGATTA,1.006 ± 0.004
11,GATTTGTTAG,0.977 ± 0.022
12,ATAACCAGTT,0.988 ± 0.014
13,GACCTTTATA,0.9914 ± 0.0062
14,GTAATAAGAT,0.996 ± 0.0046
15,TTAAAATTGC,1.08 ± 0.064
16,GGGGAACGTT,0.947 ± 0.049
17,GGGACGACAG,1.04 ± 0.031
18,GTGGTTTGCT,1.01 ± 0.013
19,CCGCATTTTT,2.19 ± 0.82
20,CTATACGGGG,0.976 ± 0.025
21,GTTGTGTCCG,1.01 ± 0.067
22,GCCAAAGGGA,1.01 ± 0.063
23,ACTTGCGGCT,1 ± 0.05
24,GTTGTTGTTT,0.999 ± 0.0094
25,TTAGACGGC,0.978 ± 0.097

row,Sequence,switch fluorescence ratio
1,CAGAACTGCG,1.01 ± 0.015
2,TAAAGATAAG,0.98 ± 0.024
3,ATCACACATT,1.02 ± 0.032
4,CGTATGCGCA,0.97 ± 0.028
5,CATCTTGGAA,1.01 ± 0.015
6,GCCGATGCGG,0.988 ± 0.013
7,ATATTTGTAT,1 ± 0.012
8,TTTTTATGC,0.975 ± 0.071
9,ATATTATCAA,1 ± 0.012
10,CCGGGTAAAA,1.03 ± 0.057
11,GTTGTACGAT,0.9971 ± 0.003
12,GGCAGAAATG,0.994 ± 0.011
13,GGGGAAAACT,1.01 ± 0.022
14,GCTTGTATTA,0.985 ± 0.016
15,TTGGGGTACA,0.9895 ± 0.0051
16,CTATCGGGTA,0.9966 ± 0.0097
17,CTTGGCGAGA,1.01 ± 0.018
18,ATATCTGCTT,0.978 ± 0.035
19,GGTGATTGTG,0.9826 ± 0.004
20,GGTTTAAACT,0.987 ± 0.016
21,CATGGCCTCT,0.987 ± 0.034
22,GTAATAATTT,0.9982 ± 0.0034
23,TATGTATGC,1.03 ± 0.014
24,TACTTGAGGG,1.01 ± 0.019
25,GAGTATCTTT,0.998 ± 0.018

row,Sequence,switch fluorescence ratio
1,AGAACCACCG,1.12 ± 0.032
2,TAGGGACTAT,1.02 ± 0.018
3,TTTTGGAACG,0.99 ± 0.031
4,CTACATACGG,1.52 ± 0.02
5,CTTCGGTGGC,1.01 ± 0.04
6,TTGGGGTTAA,1.03 ± 0.058
7,TATTTAATGA,1.54 ± 0.81
8,TCGAAAGTGT,1 ± 0.025
9,GGGGCATGAG,1.04 ± 0.021
10,TTTGATCTCG,1.0054 ± 0.00071
11,TAATCCACGG,1.05 ± 0.064
12,AACGGGGAAG,0.995 ± 0.022
13,CCACAATTTT,1.43 ± 0.63
14,CATTTAAGAT,0.997 ± 0.024
15,TATACAATGG,1.01 ± 0.024
16,GGCGGCATCT,1.01 ± 0.023
17,TGTTAGGGGC,0.98 ± 0.046
18,CACGGGCTTC,1.016 ± 0.0084
19,ATGGATGCCT,1.01 ± 0.051
20,GTTTTCAACA,0.98916 ± 0.00045
21,GGGACTAGTG,1 ± 0.029
22,CCGGGCGGAT,1.02 ± 0.0099
23,TTTTTGGCAT,1.01 ± 0.033
24,AAGGCAAATT,0.986 ± 0.026
25,TAATTACTCA,1.045 ± 0.01

row,Sequence,switch fluorescence ratio
1,ATTATAACAG,1.038 ± 0.009
2,ATTAAGAAGG,1.002 ± 0.0095
3,AAGTCCCAGC,0.995 ± 0.048
4,ATCTTTAAGT,0.993 ± 0.015
5,AACGGAAAGG,1.01 ± 0.017
6,GTGGCAGACC,1.01 ± 0.012
7,TCGTAGGGGG,0.979 ± 0.072
8,AGGTTGAGCT,0.9791 ± 0.0021
9,GAGCTCAAGT,0.991 ± 0.062
10,GATGAGCGCC,1.03 ± 0.037
11,TTTGAAATAC,2.2 ± 0.025
12,GCCTTCGGAA,3.13 ± 0.065
13,TTTTTTTAT,1.014 ± 0.01
14,TGTACGAGAA,1.003 ± 0.0035
15,GTGGGGAGTG,1.01 ± 0.045
16,AGGTTGCGCG,1.009 ± 0.0079
17,TATAATGCTC,1.01 ± 0.014
18,AGAGTTTCGA,1.01 ± 0.034
19,CCGAGTGGAG,1.083 ± 0.0024
20,TTTGAGGACT,0.992 ± 0.025
21,GATAGAGGGA,0.999 ± 0.01
22,TCCATGACCC,1.01 ± 0.015
23,GCTCGGGGGG,0.987 ± 0.031
24,GGGCTTCGTT,0.9929 ± 0.0074
25,TTTAGATGCT,1.03 ± 0.099

row,Sequence,switch fluorescence ratio
1,GAGGCAGTTG,0.993 ± 0.076
2,ATAGCATTAT,1.14 ± 0.026
3,CGGGAAAAAG,1.08 ± 0.11
4,ATGAGTTGTG,1 ± 0.017
5,CAGATAGGTT,1.09 ± 0.14
6,ATTTCGGCAC,0.9959 ± 0.0091
7,TATTTTAGGT,1.01 ± 0.048
8,TTCAGTCGAG,0.979 ± 0.02
9,GAGAAAGGGT,0.988 ± 0.019
10,ATTGGGTAT,0.988 ± 0.021
11,CGCAGGGTTC,1.13 ± 0.12
12,TTCAAAGACT,1.02 ± 0.049
13,GGTAGTTGCC,1.02 ± 0.034
14,GGAAAATGGG,1.02 ± 0.065
15,ATGTGTATGG,0.998 ± 0.018
16,ATCAATCCTT,1.03 ± 0.029
17,TATTTTTGCT,0.981 ± 0.032
18,GGGGAAGGCC,1.01 ± 0.018
19,AGGGTTCGGA,1.015 ± 0.0029
20,AGTTTGATGG,0.99 ± 0.087
21,AGGTATGGAG,0.981 ± 0.065
22,GAGTTAGTGT,1.03 ± 0.017
23,TTATTGTAAT,1.029 ± 0.0099
24,TGTGAGTGTA,1.01 ± 0.025
25,CTACCCTTTG,1.13 ± 0.038

row,Sequence,switch fluorescence ratio
1,GGGAAGGTTG,1.04 ± 0.021
2,ATGAAGAGGG,0.997 ± 0.045
3,TGTTTCGTGG,0.971 ± 0.02
4,GAGTAACTCG,1.007 ± 0.0067
5,CATTTACTAT,1.05 ± 0.021
6,GCGTTTAAGA,1.04 ± 0.021
7,ATAGTGAAGT,0.982 ± 0.019
8,ACTGGGGTTT,0.982 ± 0.024
9,TTATCGTGTC,1.02 ± 0.023
10,GTTCCGGCTG,1.02 ± 0.023
11,CTTAGGGGTA,0.999 ± 0.043
12,GAGTGCATGG,1 ± 0.012
13,TTAGGTTTGG,1.05 ± 0.15
14,AAGGCAAGTC,1.13 ± 0.091
15,TAGGTAGGCT,0.974 ± 0.025
16,GGGAGTAGGT,1.008 ± 0.0094
17,AAAGAAAGGT,1.02 ± 0.024
18,AATTTTTTTG,1.04 ± 0.051
19,AATTAGTGCT,0.9938 ± 0.0069
20,TTGTGTTTAC,1.07 ± 0.11
21,GATATATTGT,0.993 ± 0.035
22,ATGTTTGATG,0.998 ± 0.024
23,CCTGGAGCTC,1.35 ± 0.02
24,AAACTGGAT,1.01 ± 0.033
25,TGGACGGAAG,0.984 ± 0.018

row,Sequence,switch fluorescence ratio
1,CGCCTGGGGT,1.64 ± 0.92
2,TGTTTCAAGT,0.973 ± 0.064
3,CGTAATGTCT,1.06 ± 0.031
4,AGAGTTAATG,0.968 ± 0.011
5,GACGTTCTTG,0.9862 ± 0.0027
6,AAAAGAGGGG,1 ± 0.031
7,GGCCAGGGTG,2.29 ± 0.07
8,TCACGGGTTC,1.03 ± 0.031
9,GGGAATTATA,0.984 ± 0.018
10,TAGATGGGGG,1 ± 0.011
11,TCGGGGAAAG,1.04 ± 0.082
12,TTAGAGTATG,1.0206 ± 0.0007
13,CAGCACAGGG,1.18 ± 0.017
14,TTTCTCAGAG,0.995 ± 0.016
15,GTAGAAAAAA,1.002 ± 0.01
16,AAAACGGATT,0.977 ± 0.014
17,TGGTGTTTTG,0.999 ± 0.031
18,GGGGAAAGTC,1 ± 0.032
19,ATGTCGGTTT,1.02 ± 0.026
20,TTTACGGCGG,0.987 ± 0.021
21,AAAGGGTGCT,1.1 ± 0.015
22,TGGGTATTCC,1.021 ± 0.0085
23,TGATGCGGGT,0.98723 ± 6.3e-05
24,AGAGGACCGA,1.04 ± 0.05
25,CGCTCTTGGA,0.976 ± 0.031

row,Sequence,switch fluorescence ratio
1,CCAGACGGTC,1.04 ± 0.085
2,TGTTTGGGTG,1.08 ± 0.11
3,CGGTGGGCTA,1.013 ± 0.0052
4,AGCCGAGTGC,1.02 ± 0.06
5,GCTGACAGCG,0.959 ± 0.017
6,TTATGAATGC,0.999 ± 0.055
7,GGATGCAATG,1.16 ± 0.025
8,GAATTCTATG,0.997 ± 0.042
9,GTTTGCCTCC,1.03 ± 0.021
10,AGTTAGACTT,1.02 ± 0.064
11,TGGGGTTTCG,0.973 ± 0.038
12,GTTTTCGAGC,1.11 ± 0.043
13,TACTTGGTT,1.01 ± 0.02
14,CTTGCTATGC,1.64 ± 0.4
15,GCACCATCCA,1.03 ± 0.013
16,CGTTAATAGC,1.14 ± 0.019
17,ATTTTGGGGA,1.005 ± 0.01
18,GAAGTGGCTT,0.9801 ± 0.0014
19,AGTTTCCTGC,1.01 ± 0.015
20,TCAGCATTTT,1.01 ± 0.046
21,CAGTAAAAGT,0.983 ± 0.031
22,ACGAAGTTAG,0.998 ± 0.015
23,GCCGGGAAAC,1.043 ± 0.0036
24,GCACGGACAT,1.4 ± 0.031
25,CTTTGTGGGG,1.01 ± 0.029
